Legend:
[1] = biological target: T1, human EDAR domain II alone fused to Fc of human IgG1 (human, UniProt Q9R187 73-114 (mouse entry), limits assumed); test: capture ELISA on EDAR-Fc truncation proteins (FIG. 9)
T1 construct: also called CRD2 EDAR-Fc truncation protein; not shown: Fc region of human IgG1
T1 chain: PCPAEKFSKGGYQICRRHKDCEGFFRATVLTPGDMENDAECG
Excerpt: (§1) Epitope mapping of anti-EDAR monoclonal antibodies on recombinant human EDAR by ELISA. (A) Schematic linear representation of human EDAR showing the position of cystein residues (thin horizontal lines), of the putative N-linked glycosylation site (thick horizontal line, N), of the six structural modules (rectangles with rounded corners) composing the three cystein-rich domains (CRD1, CRD2, CRD3), of the transmembrane domain (rectangle, TMD), of the signal peptide (Leader), of the stalk and of the intracellular domain (ID). Amino acid numbers at the junctions of interest are indicated. The arrow indicates the predicted cleavage site of the signal peptide. The scheme is drawn to scale, except for the intracellular domain. (B) Wells of ELISA plates were coated with goat anti-human IgG antibody, blocked, and further incubated with human EDAR-Fc, mouse EDAR-Fc or the indicated human EDAR-Fc truncation proteins in cell supernatants of transfected cells. One well was also left without cell supernatant (Ctrl). The efficient capture of the various EDAR-Fc proteins was controlled using horseradish peroxydase-coupled donkey anti-human IgG antibody. Binding of mAbEDARs were monitored with horseradish peroxydase-coupled anti-mouse IgG antibody.
(§2) EDAR is a transmembrane protein whose extracellular part is composed of three membrane distal cystein-rich domains (CRDs) and of a proximal membrane stalk domain (FIG. 9A). Constructs coding for the entire EDAR protein, domains I and II, domains II and III, domain III and the stalk domain, domains I, II and III alone and the stalk domain alone were assembled with the Fc region of human IgG1, inserted into a mammalian expression vector and transiently transfected in 293T cells. […] The other fragments were not recognized, in particular the fragments made up of either domain I or II alone. mAbEDAR5, 6, 12 and 13 specifically recognized domain I, alone or together with domain II. mAbEDAR9, 14 and 15 only recognized Fc constructs containing the entire EDAR extracellular domain.

[2] = biological target: T2, human EDAR domain III and the stalk domain fused to Fc of human IgG1 (human, UniProt Q9UNE0 115-183, limits assumed); test: as above
T2 construct: also called CRD3 and stalk EDAR-Fc truncation protein; not shown: Fc region of human IgG1
T2 sequence: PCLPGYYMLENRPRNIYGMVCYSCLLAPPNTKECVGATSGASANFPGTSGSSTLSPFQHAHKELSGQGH
Excerpt: as §1, §2

[3] = biological target: T3, human EDAR domains II and III fused to Fc of human IgG1 (human, UniProt Q9R187 73-150 (mouse entry), limits assumed); test: as above
T3 construct: also called CRD2 and CRD3 EDAR-Fc truncation protein; not shown: Fc region of human IgG1
T3 sequence: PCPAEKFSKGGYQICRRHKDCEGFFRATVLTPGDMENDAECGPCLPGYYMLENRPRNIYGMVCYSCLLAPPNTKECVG
Excerpt: as §1, §2

[4] = biological target: T4, human EDAR domain III alone fused to Fc of human IgG1 (human, limits assumed); test: as above
T4 construct: also called CRD3 EDAR-Fc truncation protein; not shown: Fc region of human IgG1
T4 chain: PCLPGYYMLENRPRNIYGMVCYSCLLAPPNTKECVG
Excerpt: as §1, §2

[5] = biological target: T5, human EDAR stalk domain alone fused to Fc of human IgG1 (human, limits assumed); test: as above
T5 construct: also called stalk EDAR-Fc truncation protein; not shown: Fc region of human IgG1
T5 chain: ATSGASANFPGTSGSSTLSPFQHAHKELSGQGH
Excerpt: as §1, §2

[6] = biological target: T6, human EDAR domain I alone fused to Fc of human IgG1 (human, UniProt Q9UNE0 27-72); test: as above
T6 construct: also called CRD1 EDAR-Fc truncation protein; not shown: Fc region of human IgG1
T6 chain: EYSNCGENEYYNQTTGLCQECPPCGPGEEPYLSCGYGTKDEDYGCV
Excerpt: as §1, §2

[7] = biological target: T7, human Fas-Fc (human, UniProt P25445 26-170, limits assumed); test: Western blot, 20 ng hFas-Fc (FIG. 7B)
T7 construct: Negative control protein; also called hFas-Fc; not shown: Fc portion
T7 sequence (looked up): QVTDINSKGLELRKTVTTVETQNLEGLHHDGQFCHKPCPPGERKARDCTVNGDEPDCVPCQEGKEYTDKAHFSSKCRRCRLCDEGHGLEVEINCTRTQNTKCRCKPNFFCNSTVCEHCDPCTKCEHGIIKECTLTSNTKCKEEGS
Excerpt: (§3) The weaker signal obtained with mouse EDAR might be explained by the lower amount of mouse EDAR-Fc loaded on the gel. Binding specificity is established by showing that none of the mAbEDARs does bind to Fas-Fc and Flag-human APRIL (while Flag-human APRIL is recognized by an anti-APRIL mAb). […] The band recognized by mAbEDAR5 in the BSA lane is probably due to a cross-contamination of EDAR-Fc in the neighboring lane.

[8] = biological target: T8, Flag-human APRIL (human, UniProt O75888 110-250, limits assumed); test: Western blot (FIG. 7A)
T8 construct: Control antigen; not shown: Flag tag
T8 sequence (looked up): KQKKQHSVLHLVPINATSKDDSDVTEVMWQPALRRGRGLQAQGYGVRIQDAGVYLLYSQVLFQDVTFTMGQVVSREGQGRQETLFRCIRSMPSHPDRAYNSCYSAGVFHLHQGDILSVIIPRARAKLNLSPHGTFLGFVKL
Excerpt: (§4) FIG. 7. Use of anti-EDAR mAb in Western blotting.
as §3

[9] = biological target: T9, human EDAR-Fc (human); test: Western blot, non-reducing SDS-PAGE (FIG. 7A)
T9 construct: also called hEDAR-Fc; human EDAR (1-183)-Fc
Excerpt: as §4, §3

[10] = biological target: T10, mouse EDAR-Fc (mouse); test: ELISA on mouse EDAR-Fc (FIG. 6, 9)
T10 construct: also called mouse EDAR (1-183)-Fc; soluble mouse EDAR-Fc fusion protein
Method: FIG. 6. Specific binding of the anti-EDAR mAb to both mouse and human EDAR. Graded concentrations of mAbEDAR1-4 or of a control mAb (Aprily 5) were added to wells of a 96-well ELISA plate coated with 100 μl of 1 μg/ml of human EDAR-Fc, mouse EDAR-Fc, human Fas-Fc or Flag-human APRIL. […] The absorbance was measured at 490 nm.
In order to obtain antibodies recognizing both human and mouse EDAR, a feature which would considerably facilitate pre-clinical development of drug candidates, EDAR-deficient mice were immunized with human EDAR. It was then assessed whether monoclonal antibodies generated from these mice indeed recognized EDAR from these two animal species. The wells of microtiter plates were coated with soluble human and mouse EDAR-Fc fusion protein and a negative control protein (human Fas-Fc), blocked and probed with serial dilutions of anti-EDAR monoclonal antibody (mAb) mAbEDAR1, 2, 3 and 4 and a negative control mAb (Aprily 5) (FIG. 6), or with a single dose of mAbEDAR1 to 15 (FIG. 9).

[11] = biological target: T11, human EDAR domains I and II fused to Fc of human IgG1 (human, UniProt Q9UNE0 27-114); test: capture ELISA on EDAR-Fc truncation proteins
T11 construct: Tested as supernatant of transfected 293T cells; also called CRD1 and CRD2 EDAR-Fc truncation protein; fragment made up of domains I and II; not shown: Fc region of human IgG1
T11 sequence: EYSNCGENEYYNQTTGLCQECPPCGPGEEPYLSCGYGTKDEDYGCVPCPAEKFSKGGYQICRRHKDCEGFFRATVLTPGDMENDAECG
Excerpt: as §1, §2

T10 sequence (chain, as listed by the source limits assumed): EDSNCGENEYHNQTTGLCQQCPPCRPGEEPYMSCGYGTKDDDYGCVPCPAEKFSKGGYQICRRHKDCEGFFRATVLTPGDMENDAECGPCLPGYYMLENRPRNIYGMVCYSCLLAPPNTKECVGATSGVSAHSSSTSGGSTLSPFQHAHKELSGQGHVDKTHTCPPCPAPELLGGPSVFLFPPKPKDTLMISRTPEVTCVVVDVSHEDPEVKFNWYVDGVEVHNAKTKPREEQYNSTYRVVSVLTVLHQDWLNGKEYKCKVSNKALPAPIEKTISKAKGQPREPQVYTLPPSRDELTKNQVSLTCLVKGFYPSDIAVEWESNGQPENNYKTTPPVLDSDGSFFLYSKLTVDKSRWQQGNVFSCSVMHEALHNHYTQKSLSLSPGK

- binding result [1]: no binding
- binding result [2]: no binding
- binding result [3]: no binding
- binding result [4]: no binding
- binding result [5]: no binding
- binding result [6]: no binding
- binding result [7]: no binding
- binding result [8]: no binding
- binding result [9]: binds
- binding result [10]: binds
- binding result [11]: binds
B1: mAbEDAR2 (antibody, IgG1, V domains shown)
VH: QVQLQQPGAELVKPGASVKLSCKASGYTFTSYWMQWVKQRPGQGIEWIGEIDPSDSYTYYNQKFKGKATLTIDKSSSTAYMQLSSLTSEDSAVYYCSRKNYYRGMDYWGQGTSVTVSS
VL: DVLMTQTPLSLPVSLGDQASISCRSSQNIVQSNGNTYLEWYLQKPGQSPKLLIYKVSNRFSGVPDRFSGSGSGTDFTLKISRVEADDLGVYYCFQVSHVPYTFGGGTKLEIKR
notes: Light chain identical to that of mAbEDAR4; also called anti-EDAR mAb mAbEDAR2

Source: US20130273046A1 (UNIVERSITE DE LAUSANNE, published 2013)
